Experimental data taken from publication PMC6405930, “Conservation of the Amyloid Interactome Across Diverse Fibrillar Structures” (Scientific Reports, 2019).

Columns and labels:
[1] = target: T1, C-36 fibrils (Homo sapiens, UniProt P01009); assay: Fibril incubation with CSF, quantitative MS/MS of bound proteins; assay type: binding; parameters: key to Identification status of CSF protein bound: C-36: *: Identified, but not quantified; —: Not identified in any of the samples; conditions: for Identification status of CSF protein bound: C-36: symbol cells
T1 construct: the 36 residue C-terminal fragment of α1-antitrypsin (C-36)

[2] = target: T2, αSN fibrils (Homo sapiens, UniProt P37840); assay: Fibril incubation with plasma, quantitative MS/MS of bound proteins; assay type: binding; parameters: key to Identification status of plasma protein bound: αSN: *: Identified, but not quantified; —: Not identified in any of the samples; conditions: for Identification status of plasma protein bound: αSN: symbol cells
Protocol: (§1) Plasma and CSF solutions were centrifuged (40,000 g, 20 min) to remove any aggregates. The protein concentration was determined using 280 nm absorbance assuming 1 Abs = 1 mg/mL. […] Control samples (without fibril material) were prepared similarly. All samples were incubated at room temperature for one hour under gentle agitation. Fibrils and fibril-bound proteins were pelleted by centrifugation at 17,000 g for 30 minutes. The supernatant (175 μL) was removed and the aggregate was re-suspended in 175 μL PBS and pelleted again before further preparation for gel analysis and spin-filter assisted digest for quantitative MS/MS.
(§2) The fibril-protein pellets were transferred to spin-filters (0.22 μm), washed twice in PBS (100 μL) and once in 1 M NaCl (100 μL). The fibrils and fibril-bound proteins were dissolved by one-hour incubation in 100 μL 6 M guanidinium chloride followed by elution from the spin-filter. The eluted proteins were loaded onto a 3 kDa MWCO filter unit for filter-assisted unfolding, reduction, alkylation, and trypsin digestion. In brief, samples were washed twice in 8 M urea, once in 8 M urea with 50 mM DTT, once in 8 M urea with 50 mM iodoaceteamide, and twice in 8 M Urea. The filter units were dried by centrifugation (14,000 g in 30 minutes) after every addition. Trypsin digestion was carried out with 0.25 μg sequencing grade trypsin from Sigma Aldrich in 50 mM ammonium bicarbonate overnight at 37 °C. The tryptic peptides were collected by centrifugation, acidified with TFA (0.1%) and micro-purified using POROS R2 column material (Applied Biosystems) packed in P200 pipette tips (Sarstedt).
(§3) LC-MS/MS analyses were performed on an EASY-nLC II system (Thermo Fisher Scientific) connected to a TripleTOF 5600+ mass spectrometer (Sciex) equipped with a NanoSpray III source (Sciex) and operated under Analyst TF 1.6.0 control.
(§4) The micro-purified tryptic peptides were dissolved in 0.1% formic acid, injected and trapped on an in-house packed trap column (2 cm × 100 μm I.D) with RP ReproSil-Pur C18-AQ 3 μm resin (Dr. Maisch GmbH). Peptides were eluted from the trap column and separated on a 15 cm analytical column (75 μm i.d.) packed in-house in a pulled emitter with RP ReproSil-Pur C18-AQ 3 μm resin (Dr. Maisch GmbH). Elution from the analytical column was performed with a linear gradient from 5% to 35% phase B (90% acetonitrile with 0.1% formic acid) over 20 min for protein identification and 50 min for quantitative analysis, respectively.
(§5) All samples were analysed three times, yielding nine MS/MS experiments for each fibril for both plasma and CSF. For the area-based extracted ion chromatogram (XIC) quantification, the acquisition method was set up as an information-dependent acquisition (IDA) experiment collecting up to 25 MS/MS spectra in each 1.6 sec cycle using an exclusion window of 6 sec.
(§6) XIC quantification was based on the average ion intensity of the three most abundant peptides for each protein. Only proteins quantified in at least four out of nine MS/MS experiments per fibril were included in the quantification. The total ion scores were visualized after grouping the proteins according to function (Figure S11).
(§7) For each MS/MS experiment, the ion intensities of the individual proteins were normalized to the total ion intensity of that MS/MS experiment to achieve a relative protein composition. The contribution of each protein was averaged over all nine MS/MS experiments (Tables 1 and 2).

[3] = target: T3, glucagon fibrils (Homo sapiens, UniProt P01275); assay: Fibril incubation with CSF, quantitative MS/MS of bound proteins; assay type: binding; conditions: 4:1 w/w CSF protein:fibril
T3 construct: fibrils of the peptide hormone glucagon

[4] = target: T3, glucagon fibrils; assay: Fibril incubation with plasma, quantitative MS/MS of bound proteins; assay type: binding; conditions: 50:1 w/w plasma protein:fibril
Protocol: as §1, §2, §3, §4, §5, §6, §7

[5] = target: T2, αSN fibrils; assay: Fibril incubation with CSF, quantitative MS/MS of bound proteins; assay type: binding; parameters: key to Identification status of CSF protein bound: αSN: *: Identified, but not quantified; —: Not identified in any of the samples; conditions: for Identification status of CSF protein bound: αSN: symbol cells
[6] = test system: T4, Ab1 fibrils; assay: Fibril incubation with plasma, quantitative MS/MS of bound proteins; assay type: binding, human; conditions: 50:1 w/w plasma protein:fibril
T4 construct: Synthetic amyloid β peptide 1–40 was purchased from Caslo Aps (Lyngby, Denmark); purchased Caslo Aps (Lyngby, Denmark); host or cells: synthetic peptide
Protocol: Plasma and CSF solutions were centrifuged (40,000 g, 20 min) to remove any aggregates. The protein concentration was determined using 280 nm absorbance assuming 1 Abs = 1 mg/mL. […] Control samples (without fibril material) were prepared similarly. All samples were incubated at room temperature for one hour under gentle agitation. Fibrils and fibril-bound proteins were pelleted by centrifugation at 17,000 g for 30 minutes. The supernatant (175 μL) was removed and the aggregate was re-suspended in 175 μL PBS and pelleted again before further preparation for gel analysis and spin-filter assisted digest for quantitative MS/MS.
as §2, §3, §4, §5, §6, §7

[7] = test system: T5, Ab2 fibrils; assay: as above; assay type: binding, human; conditions: 50:1 w/w plasma protein:fibril
T5 construct: Two structurally distinct fibrils of the Aβ(1–40) peptide associated with AD
Protocol: as §1, §2, §3, §4, §5, §6, §7

[8] = target: T1, C-36 fibrils; assay: as above; assay type: binding; parameters: key to Identification status of plasma protein bound: C-36: *: Identified, but not quantified; —: Not identified in any of the samples; conditions: for Identification status of plasma protein bound: C-36: symbol cells
Protocol: as §1, §2, §3, §4, §5, §6, §7

[9] = test system: T6, FAS4-AD aggregates; assay: as above; assay type: binding, human; parameters: key to Identification status of plasma protein bound: FAS4-AD: *: Identified, but not quantified; —: Not identified in any of the samples; conditions: for Identification status of plasma protein bound: FAS4-AD: symbol cells
T6 construct: aggregates of a mutated version of the FAS1-4 domain of TGFBIp
Protocol: as §1, §2, §3, §4, §5, §6, §7

[10] = test system: T5, Ab2 fibrils; assay: Fibril incubation with CSF, quantitative MS/MS of bound proteins; assay type: binding, human; conditions: 4:1 w/w CSF protein:fibril
[11] = test system: T4, Ab1 fibrils; assay: as above; assay type: binding, human; conditions: 4:1 w/w CSF protein:fibril
[12] = test system: T6, FAS4-AD aggregates; assay: as above; assay type: binding, human; parameters: key to Identification status of CSF protein bound: FAS4-AD: *: Identified, but not quantified; —: Not identified in any of the samples; conditions: symbol cells

T3 sequence (P01275 53-81 limits assumed): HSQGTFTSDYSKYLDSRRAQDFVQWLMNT
T1 sequence (P01009 383-418 limits assumed): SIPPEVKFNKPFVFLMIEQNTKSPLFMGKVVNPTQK

| Molecule | Relative composition of CSF proteins bound: C-36 ([1]; 4:1 w/w CSF protein:fibril) | Relative composition of plasma proteins bound: αSN ([2]; 50:1 w/w plasma protein:fibril) | Relative composition of CSF proteins bound: Glucagon [3] | Relative composition of plasma proteins bound: Glucagon [4] | Relative composition of CSF proteins bound: αSN ([5]; 4:1 w/w CSF protein:fibril) | Relative composition of plasma proteins bound: Ab1 [6] | Relative composition of plasma proteins bound: Ab2 [7] | Relative composition of plasma proteins bound: C-36 ([8]; 50:1 w/w plasma protein:fibril) | Relative composition of plasma proteins bound: FAS4-AD ([9]; 50:1 w/w plasma protein:fibril) | Relative composition of CSF proteins bound: Ab2 [10] | Relative composition of CSF proteins bound: Ab1 [11] | Identification status of CSF protein bound: FAS4-AD [12] | Identification status of CSF protein bound: C-36 [1] | Identification status of plasma protein bound: αSN [2] | Identification status of CSF protein bound: αSN [5] | Identification status of plasma protein bound: C-36 [8] | Identification status of plasma protein bound: FAS4-AD [9] |
| --- | --- | --- | --- | --- | --- | --- | --- | --- | --- | --- | --- | --- | --- | --- | --- | --- | --- |
| Apolipoprotein A-IV: plasma/CSF protein bound to fibrils (protein, UniProt P06727 21-396, looked up) Apolipoprotein A-IV: EVSADQVATVMWDYFSQLSNNAKEAVEHLQKSELTQQLNALFQDKLGEVNTYAGDLQKKLVPFATELHERLAKDSEKLKEEIGKELEELRARLLPHANEVSQKIGDNLRELQQRLEPYADQLRTQVSTQAEQLRRQLTPYAQRMERVLRENADSLQASLRPHADELKAKIDQNVEELKGRLTPYADEFKVKIDQTVEELRRSLAPYAQDTQEKLNHQLEGLTFQMKKNAEELKARISASAEELRQRLAPLAEDVRGNLRGNTEGLQKSLAELGGHLDQQVEEFRRRVEPYGENFNKALVQQMEQLRQKLGPHAGDVEGHLSFLEKDLRDKVNSFFSTFKEKESQDKTLSLPELEQQQEQQQEQQQEQVQMLAPLES | 1.0 ± 0.1 % of total protein | 3.8 ± 0.6 % of total protein | 0.5 ± 0.1 % of total protein | 1.9 ± 0.2 % of total protein | 1.5 ± 0.2 % of total protein | 2.7 ± 0.1 % of total protein | 3.5 ± 0.5 % of total protein | 2.4 ± 0.4 % of total protein | 1.6 ± 0.2 % of total protein | 0.5 ± 0.0 % of total protein | 1.2 ± 0.1 % of total protein | — |  |  |  |  |  |
| Histidine-rich glycoprotein (protein, UniProt P04196 19-525, looked up) Histidine-rich glycoprotein: VSPTDCSAVEPEAEKALDLINKRRRDGYLFQLLRIADAHLDRVENTTVYYLVLDVQESDCSVLSRKYWNDCEPPDSRRPSEIVIGQCKVIATRHSHESQDLRVIDFNCTTSSVSSALANTKDSPVLIDFFEDTERYRKQANKALEKYKEENDDFASFRVDRIERVARVRGGEGTGYFVDFSVRNCPRHHFPRHPNVFGFCRADLFYDVEALDLESPKNLVINCEVFDPQEHENINGVPPHLGHPFHWGGHERSSTTKPPFKPHGSRDHHHPHKPHEHGPPPPPDERDHSHGPPLPQGPPPLLPMSCSSCQHATFGTNGAQRHSHNNNSSDLHPHKHHSHEQHPHGHHPHAHHPHEHDTHRQHPHGHHPHGHHPHGHHPHGHHPHGHHPHCHDFQDYGPCDPPPHNQGHCCHGHGPPPGHLRRRGPGKGPRPFHCRQIGSVYRLPPLRKGEVLPLPEANFPSFPLPHHKHPLKPDNQPFPQSVSESCPGKFKSGFPQVSMFFTHTFPK |  |  | 0.1 ± 0.0 % of total protein | 0.4 ± 0.0 % of total protein |  | 2.5 ± 0.1 % of total protein | 1.8 ± 0.1 % of total protein |  |  | 0.6 ± 0.2 % of total protein | 0.4 ± 0.1 % of total protein | — | * | — | — | — | — |
| Ig γ -3 chain C region: plasma/CSF protein bound to fibrils (protein, UniProt P01860 1-446, looked up) Immunoglobulin heavy constant …: ASTKGPSVFPLAPCSRSTSGGTAALGCLVKDYFPEPVTVSWNSGALTSGVHTFPAVLQSSGLYSLSSVVTVPSSSLGTQTYTCNVNHKPSNTKVDKRVELKTPLGDTTHTCPRCPEPKSCDTPPPCPRCPEPKSCDTPPPCPRCPEPKSCDTPPPCPRCPAPELLGGPSVFLFPPKPKDTLMISRTPEVTCVVVDVSHEDPEVQFKWYVDGVEVHNAKTKPREEQYNSTFRVVSVLTVLHQDWLNGKEYKCKVSNKALPAPIEKTISKTKGQPREPQVYTLPPSREEMTKNQVSLTCLVKGFYPSDIAVEWESSGQPENNYNTTPPMLDSDGSFFLYSKLTVDKSRWQQGNIFSCSVMHEALHNRFTQKSLSLSPELQLEESCAEAQDGELDGLWTTITIFITLFLLSVCYSATVTFFKVKWIFSSVVDLKQTIIPDYRNMIGQGA |  |  | 1.4 ± 0.5 % of total protein | 1.0 ± 0.1 % of total protein |  | 1.0 ± 0.1 % of total protein | 1.1 ± 0.1 % of total protein |  |  | 3.0 ± 0.2 % of total protein | 2.5 ± 0.1 % of total protein | — | * | * | * | * | — |
